Positions count from the first letter of the chain named. Numbers in names are those of the source.
How the values were obtained:
Type in all cases: biochemical
[1] = tested on: Human DNA library; assay: Sequencing with Lightning Terminators, Human DNA library (120 cycles)
Description: (§1) This section generally describes how the present mutant polymerases were used for sequencing-by-synthesis, and how their performance in sequencing was measured. Sequencing was performed on a breadboard instrument, essentially as described in Hertzog D, et al., “A high-performance, low-cost approach to next-generation sequencing”, BioOptics World. 2011 Issue November/December 2011.
(§2) In this example, a variety of mutations were introduced into Pfu10 by multi-site mutagenesis or into Pfu A486L/Y546H by domain substitutions to explore an acceptable degree of reduced identity and identify other mutant Pfu polymerases containing L486, F494, H546, and W477. […] Pfu10 and Pfu10-N12 were evaluated for performance in sequencing with Lightning Terminators, as described above.

[2] = tested on: E. coli DNA library; assay: Sequencing with Lightning Terminators, E. coli DNA library (120 cycles)
Description: as §1, §2

[3] = tested on: Lightning Terminators; assay: Plate-based assay, incorporation of Lightning Terminators by control extracts; conditions: control extracts, FIG. 6, FIGS. 7A-7B
Description: In this example, additional mutant polymerases were derived from Pfu polymerase. To generate the mutants, eighty-seven codons in the Pfu pol B gene were saturated using the QuikChange Lightning Mutagenesis kit and oligonucleotides containing “NDT” codons to create R, N, D, C, G, H, I, L, F, S, Y, and V substitutions with equal frequency. In some cases, mutants missing from NDT libraries were prepared in a separate QuikChange reaction with an equimolar mixture of mutagenic oligos encoding the remaining mutations (A, T, K, Q, E, P, […], W). Thirty-two clones were randomly selected from each QuikChange library (with the exception of T267, Y403, Y410, I475, G499 and K675 libraries which generated fewer transformants). Bacterial lysates were prepared and screened for incorporation of LTA and LTC using a plate-based assay with immobilized primer-templates. A limited number of mutants were also screened for utilization of LTG and LTU (similar trends; data not shown). After washing and UV cleavage (to minimize dye quenching effects), plates were read and fluorescent signals compared to Pfu controls. The following table identifies four mutant Pfu polymerases that served as controls, which were given the arbitrary names Pfu5, Pfu1, and Pfu2, along with Pfu10 (which is discussed above).
Selected lysates, based on screening results, were submitted for sequencing, and an amino acid identification was made based on the selections. […] As shown in Example 3, K477W benefits sequencing by increasing the fraction of full-length reads.

[4] = tested on: Lightning Terminators; assay: Sequencing-by-synthesis with Lightning Terminators (87 cycles); set-up: ARL (87 cycles) / Lead + Lag / Leading / Lagging: unit not given here
Description: as §1
In this example, mutations were introduced into the DNA polymerase of SEQ ID NO: 12 (Therminator) in an attempt to improve its capability in sequencing with 3′-OH unblocked terminators. Such mutations to Thermococcus sp. 9° N DNA polymerase are disclosed in U.S. Pat. Nos. 9,273,352; 9,677,059; 9,765,309; U.S. Pat. App. Publication No. 20160032377. The following table summarizes sequencing metrics with Lightning Terminators.
As used in this example and those that follow, “Lead+Lag” refers to dephasing errors in Sequencing by Synthesis technology caused by either reading the next base signal (Lead) or reading the previous base signal (Lag) relative to current base signals. Such errors may arise because of imperfect incoporation of reversible terminators by the polymerase.
In this example, mutant polymerases were created by introducing certain mutations (D141A/E143A/A485L) which are present in Therminator. The three mutations were introduced at the equivalent positions in JDF3 (Thermococcus sp. JDF3) and Pfu (Pyrococcus furisosus) DNA polymerases. The new mutant polymerases were then evaluated for their performance in sequencing with Lightning Terminators, as described above.

[5] = alternative polymerases (D141A/E143A), same protein concentrations (0.02 ug/uL in cycle 1 and 0.002 ug/uL in cycles 2-n)
[6] = Therminator mutants, same unit concentrations (0.08 U/ul in cycle 1 and 0.008 U/ul in cycles 2-n)

B1: Pfu10-N12: Pfu10 variant with 15 conservative mutations plus M129A, SEQ ID NO:3 (protein)
chain: MILDVDYITEEGKPIIRLFKKENGKFRIEHDRTFRPYIYALLRDDSKIEEIKKITGERHGKIVRIVDVEKVEKKFLGKPVTVWRLYLEHPQDVPTIREKVKEHPAVIDIFEYDIPFAKRYLIDKGLVPAEGEEELKILAFAIATLYHEGEEFGKGPIIMISYADENEAKVITWKNIDLPYVEVVSSEREMIKRFVKIIKEKDPDIIVTYNGDSFDFPYLAKRAEKLGVKLTIGRDGSEPKMQRIGDMTAVEVKGRIHFDLYHVITRTINLPTYTLEAVYEAIFGKPKEKVYADEIAKAWESGENLERVAKYSMEDAKATYELGKEFLPMEIQLSRLVGQPLWDVSRSSTGNLVEWFLLRKAYERNEVAPNKPSEEEYQRRLRESYTGGFVKEPEKGLWENIVYLDFRALYPSIIITHNVSPDTLNLEGCKNYDIAPQVGHKFCKDIPGFIPSLLGHLLEERQKIKTKMKETQDPIEWILLDYRQKLIKLLANSFYGYYGYARARWYCRECAESVTAWGRKYIELTWKELEEKFGFKVLYIDTDGLHATIPGGESEEIKKKALEFVKYINSKLPGLLELEYEGFYKRGFFVTKKRYAVIDEEGKVITRGLEIVRRDWSEIAKETQARVLETILKHGDVEEAVRIVKEVIQKLANYEIPPEKLAIYEQITRPLHEYKAIGPHVAVAKKLAAKGVKIKPGMVIGYIVLRGDGPISNRAILAEEYDPKKHKYDAEYYIENQVLPAVLRILEGFGYRKEDLRYQKTRQVGLTSWLNIKKS
modifications: Mutant of Pyrococcus furiosus Polymerase
% reads >85 ([1]; Human DNA library): 93.3% | ARL (120 cycles) ([1]; Human DNA library): 111.6 | FracQ30 ([1]; Human DNA library): 0.68 | Lead + Lag ([1]; Human DNA library): 1.0 | Sequencing performance with Lightning Terminators (in words) ([1]; Human and E. coli libraries, compared with Pfu10): performs comparably if not slightly better than Pfu10 | % reads >85 [2]: 82.6% | ARL (120 cycles) [2]: 93.8 | FracQ30 [2]: 0.65 | Lead + Lag [2]: 0.9

B2: Pfu1: Pfu DNA polymerase with D141A/E143A/A486L (protein, UniProt P61875 1-775, looked up, variant D141A E143A A486L)
DNA polymerase: MILDVDYITEEGKPVIRLFKKENGKFKIEHDRTFRPYIYALLRDDSKIEEVKKITGERHGKIVRIVDVEKVEKKFLGKPITVWKLYLEHPQDVPTIREKVREHPAVVDIFEYDIPFAKRYLIDKGLIPMEGEEELKILAFAIATLYHEGEEFGKGPIIMISYADENEAKVITWKNIDLPYVEVVSSEREMIKRFLRIIREKDPDIIVTYNGDSFDFPYLAKRAEKLGIKLTIGRDGSEPKMQRIGDMTAVEVKGRIHFDLYHVITRTINLPTYTLEAVYEAIFGKPKEKVYADEIAKAWESGENLERVAKYSMEDAKATYELGKEFLPMEIQLSRLVGQPLWDVSRSSTGNLVEWFLLRKAYERNEVAPNKPSEEEYQRRLRESYTGGFVKEPEKGLWENIVYLDFRALYPSIIITHNVSPDTLNLEGCKNYDIAPQVGHKFCKDIPGFIPSLLGHLLEERQKIKTKMKETQDPIEKILLDYRQKLIKLLANSFYGYYGYAKARWYCKECAESVTAWGRKYIELVWKELEEKFGFKVLYIDTDGLYATIPGGESEEIKKKALEFVKYINSKLPGLLELEYEGFYKRGFFVTKKRYAVIDEEGKVITRGLEIVRRDWSEIAKETQARVLETILKHGDVEEAVRIVKEVIQKLANYEIPPEKLAIYEQITRPLHEYKAIGPHVAVAKKLAAKGVKIKPGMVIGYIVLRGDGPISNRAILAEEYDPKKHKYDAEYYIENQVLPAVLRILEGFGYRKEDLRYQKTRQVGLTSWLNIKKS
Utilization of Lightning Terminators (in words) [3]: could utilize Lightning Terminators | % reads >85 [4, 5]: 9.9% | ARL (87 cycles) [4, 5]: 54.9 | Lead + Lag [4, 5]: 2.1

B3: Therminator: DNA polymerase of SEQ ID NO:12, derivative of Thermococcus sp. 9° N-7 DNA polymerase (D141A/E143A/A485L), New England Biolabs (protein)
chain: MILDTDYITENGKPVIRVFKKENGEFKIEYDRTFEPYFYALLKDDSAIEDVKKVTAKRHGTVVKVKRAEKVQKKFLGRPIEVWKLYFNHPQDVPAIRDRIRAHPAVVDIYEYDIPFAKRYLIDKGLIPMEGDEELTMLAFAIATLYHEGEEFGTGPILMISYADGSEARVITWKKIDLPYVDVVSTEKEMIKRFLRVVREKDPDVLITYNGDNFDFAYLKKRCEELGIKFTLGRDGSEPKIQRMGDRFAVEVKGRIHFDLYPVIRRTINLPTYTLEAVYEAVFGKPKEKVYAEEIAQAWESGEGLERVARYSMEDAKVTYELGREFFPMEAQLSRLIGQSLWDVSRSSTGNLVEWFLLRKAYKRNELAPNKPDERELARRRGGYAGGYVKEPERGLWDNIVYLDFRSLYPSIIITHNVSPDTLNREGCKEYDVAPEVGHKFCKDFPGFIPSLLGDLLEERQKIKRKMKATVDPLEKKLLDYRQRLIKILANSFYGYYGYAKARWYCKECAESVTAWGREYIEMVIRELEEKFGFKVLYADTDGLHATIPGADAETVKKKAKEFLKYINPKLPGLLELEYEGFYVRGFFVTKKKYAVIDEEGKITTRGLEIVRRDWSEIAKETQARVLEAILKHGDVEEAVRIVKEVTEKLSKYEVPPEKLVIHEQITRDLRDYKATGPHVAVAKRLAARGVKIRPGTVISYIVLKGSGRIGDRAIPADEFDPTKHRYDAEYYIENQVLPAVERILKAFGYRKEDLRYQKTKQVGLGAWLKVKGKK
% reads >85 bp ([4]; Example 3): 49.6% | FracQ30 ([4]; Example 3): 0.58 | Lagging ([4]; Example 3): 0.61 | Leading ([4]; Example 3): 0.70 | ARL (87 cycles) ([4]; Example 3, Therminator 110 runs, Pfu10 12 runs): 76.0 | % reads >85 bp [4, 6]: 35.4% | ARL (87 cycles) [4, 6]: 72.3 | Lead + Lag [4, 6]: 1.6 | % reads >85 [4, 5]: 49.6% | ARL (87 cycles) [4, 5]: 76.0 | Lead + Lag [4, 5]: 1.3

B4: R743A: Therminator with mutation R743A (9° N DNA pol numbering) (protein, UniProt Q56366 1-775, looked up, variant D141A E143A A485L R743A)
DNA polymerase: B3 chain with R743A
% reads >85 bp [4, 6]: 8.6% | ARL (87 cycles) [4, 6]: 55.0 | Lead + Lag [4, 6]: 2.4

B5: T514S: Therminator with mutation T514S (9° N DNA pol numbering) (protein, UniProt Q56366 1-775, looked up, variant D141A E143A A485L T514S)
DNA polymerase: B3 chain with T514S
modifications: Therminator
% reads >85 bp [4, 6]: 38.3% | ARL (87 cycles) [4, 6]: 72.0 | Lead + Lag [4, 6]: 1.1

B6: I521L: Therminator with mutation I521L (9° N DNA pol numbering) (protein, UniProt Q56366 1-775, looked up, variant D141A E143A A485L I521L)
DNA polymerase: B3 chain with I521L
modifications: Therminator
% reads >85 bp [4, 6]: 2.8% | ARL (87 cycles) [4, 6]: 53.9 | Lead + Lag [4, 6]: 2.8

B7: K477M: Therminator with mutation K477M (9° N DNA pol numbering) (protein, UniProt Q56366 1-775, looked up, variant D141A E143A A485L K477M)
DNA polymerase: B3 chain with K477M
modifications: Therminator
% reads >85 bp [4, 6]: 27.7% | ARL (87 cycles) [4, 6]: 68.8 | Lead + Lag [4, 6]: 1.6

B8: T144G: Therminator with mutation T144G (9° N DNA pol numbering) (protein, UniProt Q56366 1-775, looked up, variant D141A E143A A485L T144G)
DNA polymerase: B3 chain with T144G
modifications: Therminator
% reads >85 bp [4, 6]: 31.8% | ARL (87 cycles) [4, 6]: 70.5 | Lead + Lag [4, 6]: 1.4

B9: G153D: Therminator with mutation G153D (9° N DNA pol numbering) (protein, UniProt Q56366 1-775, looked up, variant D141A E143A A485L G153D)
DNA polymerase: B3 chain with G153D
modifications: Therminator
% reads >85 bp [4, 6]: 21.5% | ARL (87 cycles) [4, 6]: 66.7 | Lead + Lag [4, 6]: 1.8

— patent US12006519B2, “Polymerase mutants and use with 3′-OH unblocked reversible terminators” (Agilent Technologies, Inc., priority 2021, dated 2024)
